B1: Hairpin Ribozyme (parent)
chain: GUCCUCUUUCACGUGCGCGUGAAAGAGAGAAGUGAACCAGAGAAACACACGUUGUGGUAUAUUACCUGGUA

Variants of: B1
Experiment: self-cleavage, relative activity (ratio to wild type); higher = more cleavage; co-transcriptional

Point of comparison: G17A A59C, self-cleavage 0.196. Against it:
- G17A A59U — lower, 0.116
- C16G G25A — higher, 0.612
- C16U A43C — lower, 0.174
- C16U A47U — lower, 0.0914
- C16U C48A — lower, 0.114
- C16G A44G — lower, 0.0556
- C16G A35C — higher, 0.659
- C16G A35U — higher, 0.693
- C16G G32C — lower, 0.091
- G17A A35U — higher, 0.778
- C16U U60A — higher, 1.01
- C16G C50A — higher, 0.198
- C16G C50U — higher, 0.306
- C16A U55A — higher, 0.221
- C16A U55G — higher, 0.232
- C16G G54A — higher, 0.485
- C16G G54U — higher, 0.493
- C16U U70A — higher, 1.03
- C16U U70C — higher, 0.949
- C16G A47G — lower, 0.187
- C16U A39G — higher, 0.326
- C16U A64C — lower, 0.133
- C16G G42U — higher, 0.247
- C16G G42A — higher, 0.251
- C16G A30U — lower, 0.0915
- C16U C66A — lower, 0.194
- C16G A36U — higher, 0.553
- C16G G19C — higher, 0.618
- C16G G19U — higher, 0.719
- G17A A24C — higher, 0.894
- G17A A24U — higher, 1.03
- G17A A49U — lower, 0.141
- C16G A61U — higher, 0.253
- C16G A61G — lower, 0.151
- C16A G27C — higher, 0.218
- C16A G27U — higher, 0.202
- C16G G68C — lower, 0.153
- C16G G40A — higher, 0.198
- C16U U62A — lower, 0.18
- C16U C18G — higher, 0.873
- C16U C18A — higher, 0.985
- C16U G34C — higher, 1.53
- C16U G29A — lower, 0.146
- C16G U53G — higher, 0.713
- C16U A24U — higher, 1.02
- C16U A24G — higher, 0.997
- G17A — higher, 1.01
- G17A A43C — lower, 0.0401
- C16A U33G — higher, 0.317
- C16G G51C — higher, 0.564
- C16G G51U — higher, 0.803
- C16U U58A — higher, 0.731
- C16U U58C — higher, 1.1
- G17A C18U — higher, 1.12
- G17A A45C — lower, 0.0797
- C16A U63C — lower, 0.0962
- C16U C50G — higher, 0.339
- C16U C50A — higher, 0.295
- C16A G29C — lower, 0.0987
- C16A G29A — lower, 0.144
- C16A G29U — lower, 0.128
- C16G C18U — higher, 0.823
- C16G C18G — higher, 0.863
- G17A A39C — higher, 0.51
- C16G G21U — higher, 0.442
- C16G G69C — higher, 0.197
- G17A A30G — lower, 0.0738
- G17A A30U — lower, 0.0442
- C16U G21A — higher, 0.843
- C16U G40U — lower, 0.146
- C16G C66G — lower, 0.0535
- C16A U20A — higher, 0.743
- C16A U20G — higher, 0.812
- C16A G25A — higher, 0.561
- C16A U70A — higher, 0.83
- C16A U70C — higher, 0.978
- C16A G69U — higher, 0.334
- G17A A71C — higher, 1.37
- C16U G17C — higher, 0.985
- C16U G17U — higher, 0.92
- C16G A45C — lower, 0.152
- C16G A45U — higher, 0.229
- C16U U67C — higher, 0.283
- C16U U67G — higher, 0.367
- C16U A71U — higher, 0.859
- C16U U63C — lower, 0.165
- C16G A43G — lower, 0.0515
- C16G A43C — lower, 0.156
- G17A A47G — lower, 0.129
- C16U A36U — higher, 0.804
- C16U A36C — higher, 0.789
- C16A G56U — lower, 0.151
- C16U A61G — lower, 0.148
- C16U G57C — lower, 0.113
- C16A G34A — higher, 1.35
- C16A G34U — higher, 1.47
- C16A U58G — higher, 0.736
- C16G U55A — higher, 0.265
- C16A U67G — lower, 0.182
- C16G U67A — lower, 0.097
- C16U U55A — higher, 0.357
- C16U U55G — higher, 0.219
- C16G C38U — lower, 0.167
- C16A G42A — higher, 0.366
- C16A G57A — lower, 0.129
- C16G C65G — lower, 0.163
- C16A U52G — higher, 0.879
- C16G A49G — higher, 0.544
- C16G A59U — lower, 0.145
- C16G A31U — higher, 0.226
- C16G A31C — lower, 0.0855
- C16U A41C — higher, 1.4
- C16U A41G — higher, 0.809
- C16G U60G — higher, 0.511
- G17A A28G — higher, 1.14
- C16U G32A — higher, 0.216
- C16U C65G — higher, 0.26
- C16U C65U — higher, 0.443
- C16A G40U — lower, 0.147
- C16G A71G — higher, 1.05
- C16G A71C — higher, 1.35
- C16G U20G — higher, 0.661
- C16G U20A — higher, 1.02
- G17A A41C — higher, 1.38
- G17A A41U — higher, 1.38
- C16A U53C — higher, 0.753
- C16U G27U — higher, 0.198
- C16G U33A — lower, 0.105
- C16G U33G — lower, 0.12
- C16U A49C — higher, 0.204
- C16U A22C — higher, 0.899
- C16U G54A — higher, 0.518
- C16U G25U — higher, 0.873
- C16U G19A — higher, 1.03
- C16G U52A — higher, 1.09
- C16U A28C — higher, 0.565
- C16G G56U — lower, 0.187
- C16G A22C — higher, 0.604
- C16G A22U — higher, 0.691
- C16G G57U — lower, 0.119
- C16A G51A — higher, 0.943
- C16A G51C — higher, 0.714
- C16U A23G — higher, 1
- C16U A26G — higher, 0.959
- C16G C37G — higher, 0.386
- C16U C46A — lower, 0.177
- C16U C46G — lower, 0.141
- C16G A64C — lower, 0.161
- C16G A64G — higher, 0.511
- C16G A64U — lower, 0.172
- C16U C37A — higher, 0.361
- C16U C37U — higher, 0.508
- C16A U62G — lower, 0.154
- C16A U62C — higher, 0.276
- C16U U33C — higher, 0.27
- C16U U33A — lower, 0.0953
- C16U A30U — higher, 0.2
- C16G A23U — higher, 0.718
- C16G U58A — higher, 0.488
- C16A G32C — lower, 0.0596
- C16A G32U — higher, 0.226
- C16A G32A — lower, 0.121
- C16U U52A — higher, 1.01
- C16U U52C — higher, 0.7
- C16U G51U — higher, 1.03
- C16U G51C — higher, 1.08
